Data on 71 substances can be found in US10738094B2, “Peptides and combination of peptides for use in immunotherapy against ovarian cancer and other cancers” (immatics biotechnologies GmbH, priority 2015, dated 2020).

The target of this assay is HLA-A*02:01 (Homo sapiens, UniProt P04439, D140Y/D185E/D98H/E176V/E277Q/G131W/G231S/I119V/I121R/I166T/I218V/L300P/L318F/N151K/N90K/P208A/P217A/Q86G/Q94H/R138H/R169H/T345S). The experiment in a line: MHC binding assay (UV-ligand exchange, beta2m ELISA). As to conditions: binding to HLA-A*02:01 ranged by peptide exchange yield (UV-ligand exchange, β2m ELISA). A digest of the protocol: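 Stabilised complexes were quantified via their β2m light chain: 100-fold-diluted monomers bound to streptavidin plates, then HRP anti-β2m at 2 ug/ml for 1 h at 37° C., TMB read at 450 nm. The value is the yield of UV-induced exchange of a photocleavable peptide for the candidate.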
With “405 (ALYDVFLEV; listed as Homo sapiens) [compound 405]”, the Peptide exchange result was ““++” (≥20% = ++)”.
Next, “561 (YLQLTQSEL; listed as Homo sapiens) [compound 561]”: ““+++” (≥50 = +++)”; “66 (FLDENIGGVAV; listed as Homo sapiens) [compound 66]”: ““+++” (≥50 = +++)”.
As to “339 (GLWEIENNPTVKA; listed as Homo sapiens) [compound 339]”, the Peptide exchange result is ““++++” (≥75% = ++++)”.
As for “186 (TLFFQQNAL; listed as Homo sapiens) [compound 186]”, the Peptide exchange result is on record as ““++” (≥20% = ++)”.
On to “96 (YIFTDNPAAV; listed as Homo sapiens) [compound 96]”, for which the Peptide exchange entry is on record as ““+++” (≥50 = +++)”.
Regarding “229 (RLPGPLGTV; listed as Homo sapiens) [compound 229]”, the Peptide exchange entry is listed as ““++” (≥20% = ++)”.
As for “72 (SLLELDGINL; listed as Homo sapiens) [compound 72]”, the Peptide exchange entry is ““+++” (≥50 = +++)”.
As to “234 (ALMEDTGRQML; listed as Homo sapiens) [compound 234]”, the Peptide exchange entry was ““++” (≥20% = ++)”.
On to “132 (LLVEQPPLAGV; listed as Homo sapiens) [compound 132]”, for which the Peptide exchange result is recorded as ““+++” (≥50 = +++)”.
“599 (YLLNDASLISV; listed as Homo sapiens) [compound 599]”: the Peptide exchange result is reported as ““+++” (≥50 = +++)”.
Turning to “262 (LLWGDLIWL; listed as Homo sapiens) [compound 262]”, the Peptide exchange result is ““+++” (≥50 = +++)”.
With “322 (TLMTSLPAL; listed as Homo sapiens) [compound 322]”, the Peptide exchange result is ““+++” (≥50 = +++)”.
Next, “403 (KLYDRILRV; listed as Homo sapiens) [compound 403]”: ““++” (≥20% = ++)”.
As to “206 (VLQEGKLQKLAQL; listed as Homo sapiens) [compound 206]”, the Peptide exchange entry is reported as ““+++” (≥50 = +++)”.
The same measure for “336 (ILLTAIVQV; listed as Homo sapiens) [compound 336]”: ““+++” (≥50 = +++)”; for “51 (LLPDLEFYV; listed as Homo sapiens) [compound 51]”: ““++++” (≥75% = ++++)”.
With “279 (ALWGGTQPLL; listed as Homo sapiens) [compound 279]”, the Peptide exchange result is ““++” (≥20% = ++)”.
As to “498 (KLWTGGLDNTV; listed as Homo sapiens) [compound 498]”, the Peptide exchange entry is listed as ““+++” (≥50 = +++)”.
As for “538 (LLLAHIIAL; listed as Homo sapiens) [compound 538]”, the Peptide exchange entry was ““++” (≥20% = ++)”.
“119 (FLYIGDIVSL; listed as Homo sapiens) [compound 119]”: the Peptide exchange result is reported as ““++++” (≥75% = ++++)”.
As for “57 (TLAELQPPVQL; listed as Homo sapiens) [compound 57]”, the Peptide exchange result is reported as ““+++” (≥50 = +++)”.
Regarding “231 (FLSPQQPPLLL; listed as Homo sapiens) [compound 231]”, the Peptide exchange entry was ““++” (≥20% = ++)”.
Consider “351 (SLIPNLRNV; listed as Homo sapiens) [compound 351]”, for which the Peptide exchange result was ““+++” (≥50 = +++)”.
As to “379 (IMEGTLTRV; listed as Homo sapiens) [compound 379]”, the Peptide exchange entry is ““++” (≥20% = ++)”.
Take “429 (GLVNDLARV; listed as Homo sapiens) [compound 429]”: the Peptide exchange entry is on record as ““++” (≥20% = ++)”.
Take “508 (ILAQEQLVVGV; listed as Homo sapiens) [compound 508]”: the Peptide exchange entry is ““+++” (≥50 = +++)”.
“550 (FLYDEIEAEVNL; listed as Homo sapiens) [compound 550]”: the Peptide exchange entry is ““+++” (≥50 = +++)”.
As to “345 (VIWKALIHL; listed as Homo sapiens) [compound 345]”, the Peptide exchange entry is recorded as ““+++” (≥50 = +++)”.
The same measure for “54 (SLLEQGKEPWMV; listed as Homo sapiens) [compound 54]”: ““+++” (≥50 = +++)”; for “308 (SQYSGQLHEV; listed as Homo sapiens) [compound 308]”: ““+++” (≥50 = +++)”.
“243 (LLLNELPSV; listed as Homo sapiens) [compound 243]”: the Peptide exchange entry was ““+++” (≥50 = +++)”.
Next, “221 (ALYEEGLLL; listed as Homo sapiens) [compound 221]”: ““++” (≥20% = ++)”.
“215 (QLINHLHAV; listed as Homo sapiens) [compound 215]”: the Peptide exchange result is reported as ““+++” (≥50 = +++)”.
The same measure for “617 (ALMYESEKVGV; listed as Homo sapiens) [compound 617]”: ““+++” (≥50 = +++)”; for “383 (ALLELENSVTL; listed as Homo sapiens) [compound 383]”: ““+++” (≥50 = +++)”; for “274 (SLLFSLFEA; listed as Homo sapiens) [compound 274]”: ““++” (≥20% = ++)”.
The same measure for “391 (YVYPQRLNFV; listed as Homo sapiens) [compound 391]”: ““+++” (≥50 = +++)”; for “589 (KLYPQLPAEI; listed as Homo sapiens) [compound 589]”: ““+++” (≥50 = +++)”; for “449 (KLAEGLDIQL; listed as Homo sapiens) [compound 449]”: ““+++” (≥50 = +++)”.
As for “296 (FMEGAIIYV; listed as Homo sapiens) [compound 296]”, the Peptide exchange entry is on record as ““+++” (≥50 = +++)”.
The same measure for “43 (VLSSLEINI; listed as Homo sapiens) [compound 43]”: ““++” (≥20% = ++)”.
Consider “145 (FLATSGTLAGI; listed as Homo sapiens) [compound 145]”, for which the Peptide exchange result is given as ““++” (≥20% = ++)”.
On to “165 (SLLDEIRAV; listed as Homo sapiens) [compound 165]”, for which the Peptide exchange entry is recorded as ““+++” (≥50 = +++)”.
Regarding “81 (FLFSQLQYL; listed as Homo sapiens) [compound 81]”, the Peptide exchange entry is recorded as ““++” (≥20% = ++)”.
For “266 (KITDTLIHL; listed as Homo sapiens) [compound 266]”, the Peptide exchange result is ““+++” (≥50 = +++)”.
“553 (SLLNQDLHWSL; listed as Homo sapiens) [compound 553]”: the Peptide exchange result is ““++++” (≥75% = ++++)”.
In the case of “236 (GLLEAKVSL; listed as Homo sapiens) [compound 236]”, the Peptide exchange result is ““+++” (≥50 = +++)”.
In the case of “230 (ILVDWLVEV; listed as Homo sapiens) [compound 230]”, the Peptide exchange entry is given as ““+” (≥10% = +)”.
Regarding “211 (LLWPGAALL; listed as Homo sapiens) [compound 211]”, the Peptide exchange result is given as ““++” (≥20% = ++)”.
Regarding “503 (SLNHFTHSV; listed as Homo sapiens) [compound 503]”, the Peptide exchange entry is listed as ““+++” (≥50 = +++)”.
For the substance “394 (LLAVIGGLVYL; listed as Homo sapiens) [compound 394]”, the Peptide exchange entry is recorded as ““+++” (≥50 = +++)”.
In the case of “110 (FLSQVDFEL; listed as Homo sapiens) [compound 110]”, the Peptide exchange entry is ““+++” (≥50 = +++)”.
With “74 (ALLDPEVLSIFV; listed as Homo sapiens) [compound 74]”, the Peptide exchange entry is listed as ““+++” (≥50 = +++)”.
Take “305 (SIANFSEFYV; listed as Homo sapiens) [compound 305]”: the Peptide exchange entry was ““++++” (≥75% = ++++)”.
For the substance “385 (SLLEQGLVEA; listed as Homo sapiens) [compound 385]”, the Peptide exchange result is ““++” (≥20% = ++)”.
As to “531 (YTLPIASSIRL; listed as Homo sapiens) [compound 531]”, the Peptide exchange result is ““+++” (≥50 = +++)”.
For the substance “140 (YMDAPKAAL; listed as Homo sapiens) [compound 140]”, the Peptide exchange entry was ““++” (≥20% = ++)”.
Next, “586 (KLKPGDLVGV; listed as Homo sapiens) [compound 586]”: ““+++” (≥50 = +++)”.
“547 (TLDITPHTV; listed as Homo sapiens) [compound 547]”: the Peptide exchange entry is listed as ““+++” (≥50 = +++)”.
For the substance “387 (ALFQATAEV; listed as Homo sapiens) [compound 387]”, the Peptide exchange entry is given as ““++++” (≥75% = ++++)”.
Next, “611 (YLLDDGTLVV; listed as Homo sapiens) [compound 611]”: ““++++” (≥75% = ++++)”; “216 (NLWEDPYYL; listed as Homo sapiens) [compound 216]”: ““+++” (≥50 = +++)”.
For “440 (ALADGVTMQV; listed as Homo sapiens) [compound 440]”, the Peptide exchange result was ““++” (≥20% = ++)”.
With “318 (GLINTGVLSV; listed as Homo sapiens) [compound 318]”, the Peptide exchange result is reported as ““++” (≥20% = ++)”.
The same measure for “517 (LLMPIPEGLTL; listed as Homo sapiens) [compound 517]”: ““+++” (≥50 = +++)”; for “71 (GILARIASV; listed as Homo sapiens) [compound 71]”: ““+++” (≥50 = +++)”; for “98 (LIIDQADIYL; listed as Homo sapiens) [compound 98]”: ““+++” (≥50 = +++)”.
For the substance “82 (FLSSVTYNL; listed as Homo sapiens) [compound 82]”, the Peptide exchange result is listed as ““+++” (≥50 = +++)”.
Next, “195 (GLFADLLPRL; listed as Homo sapiens) [compound 195]”: ““+++” (≥50 = +++)”; “153 (FLIANVLYL; listed as Homo sapiens) [compound 153]”: ““+” (≥10% = +)”.
